Measurements from publication PMC11932488, “Lytic coelomocyte death is tuned by cleavage but not phosphorylation of MLKL in echinoderms” (PLOS Pathogens, 2025).

Target: the molecule itself
Test: cross-linking; coelomocytes infected with 10^8 CFU/ml AJ01 for 3 h; Triton X-100 insoluble pellet cross-linked 30 min at room temperature (DSS by the legend); Western blot

B1: AjCASP-1 (cysteine-aspartic specific protease-1 of Apostichopus japonicus), endogenous (enzyme, UniProt A0A6G5QC75 1-299, looked up)
chain: MAVADIPSSDYVFRERKRPIRGDEPSAIHFNLRYDMQQQTRGFAHIFNNDIFQKMDDRKGTRKDRDNLKETFTNLGFKVRVHDDCTASEIRDILLEASKVDHSDFDCFLCVFLTHGDDGIIYGSDGEPESFKGNGSVHSTNRTWLRLNDDVFDIFRGNNCSTLIGKPKIFIIQACRGGTAEFSAMIGSAATDYEEPLETSVGVKVTIPTEADFLISYSSSEGYYSFRELYKGTWFIQDLTRVLNEFGRNGDFIRMLTVVNKLVSERAIQGSGKPELEGKKQMPCFLSKLTRQLHLTAQT
notes: AjCASP-1, caspase-1 of Apostichopus japonicus, MH807451; 34 kDa monomer, self-cleaved to p20 (25 kDa) after AJ01 infection; In infected cells both the uncleaved and the self-cleaved form are present; also called AjCaspase-1; source: endogenous, A. japonicus coelomocyte lysate (uninfected or AJ01-infected)
- stoichiometry N: 2
